The term IC50 denotes the point on the concentration scale where inhibition reaches its midpoint. A lower IC50 goes with higher potency. One may read the EC50 as the concentration needed to bring the measured effect to its halfway point. A low value points to a more potent agent. As a reminder, the Kd is a measure of binding affinity in units of concentration. Broadly, the koff is the first-order rate constant of dissociation. Low values mean a long-lived complex, high ones a short-lived complex. A word on the kon: it is the rate constant with which the complex forms.

From patent US20170267762A1 (APOLLOMICS, published 2017) come the findings set out here.

Test [1] addresses T1, human PD-1 extracellular domain fused with mouse Fc (PD-1-mFc) (human, UniProt Q15116 25-170).
T1 construct: extracellular domain; not used because of the label; also called hPD-1-mFc; human PD-1-mouse Fc fusion protein
The test is described as follows: ELISA ligand blockage: biotinylated PD-L1-mFc binding to plate-bound PD-1, OD450 (methods similar to Example 2: PD-1-mFc coated). How it is done:
(§1) PD-1-mFc antigen (CrownBio) was suspended in PBS (Hyclone,Cat No:SH30256.01B) buffer (2 ug/ml, 100 ul/ well) and coated on the 96 well plate (costar, Cat No.:9018) 4° C. overnight. Plates were washed 3 times using washing buffer: PBS+0.05% Tween 20(Sigma, Cat No.:P1379). 200 ul of blocking buffer (PBS+1%BSA(Roche, Cat No.:738328)), was added to each well, incubated at 37° C. for 1 hour, and washed 3 times. Various concentrations (suitable dilutions of hybridoma supernatant in PBS) of the anti-PD-1 Abs were added to the wells (100 μl/well) and incubated at 37° C. for 1 hour. […] Secondary antibody (Avidin HRP eBioscience cat No.:E07418-1632, 1:500, 100 ul/well) was added, incubated at 37 ° C. for 0.5 hour, and washed 3 times. TMB (Sigma, Cat No.: T0440, 100 ul/well) was added, and incubated for 3 min at RT. To stop the reaction, 2N H2SO4 (100 ul/well), was added. The colorimetric signals were developed and read at 450 nm using a Auto Plate SpectraMax Plus (Supplier: Molecular Devices; Model: MNR0643; Software: SoftMax Pro v5.4).
On the technique in general: In an ELISA, binding on a coated surface is turned into a signal by an enzyme label.

In test [2] the target is T2, human PD-1 extracellular domain fused with human Fc tag (hPD-1-hFc) (human).
T2 construct: also called human PD-1-hFc
T2 sequence (chain, as listed by the source limits assumed): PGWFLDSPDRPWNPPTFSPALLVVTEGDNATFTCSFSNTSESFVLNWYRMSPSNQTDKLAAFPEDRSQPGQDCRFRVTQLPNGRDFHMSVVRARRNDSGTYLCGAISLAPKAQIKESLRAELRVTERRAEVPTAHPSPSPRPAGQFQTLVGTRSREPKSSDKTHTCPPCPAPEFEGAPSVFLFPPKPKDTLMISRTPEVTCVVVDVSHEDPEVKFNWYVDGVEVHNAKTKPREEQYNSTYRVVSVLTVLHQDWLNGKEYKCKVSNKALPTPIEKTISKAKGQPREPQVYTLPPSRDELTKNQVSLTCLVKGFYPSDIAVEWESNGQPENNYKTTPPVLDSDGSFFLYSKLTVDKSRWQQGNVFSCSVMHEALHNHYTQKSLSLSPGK
The test can be described thus: ELISA binding to plate-bound PD-1, OD450 (methods similar to Example 2: plate coated with PD1-hFc). The procedure:
(§2) ELISA binding analysis was conducted based on human PD-1-hFc Protein. 96-well plates (Costar, Cat No:9018) were coated with 100 μL of 2 μg/ml PD1-hFc (CrownBio) in coating buffer (PBS, Hyclone, Cat No:SH30256.01B) overnight at 4° C. The wells were aspirated and non-specific binding sites were blocked by adding 200 μL of blocking buffer with 1% (w/v) of bovine serum albumin (BSA, Roche, Cat No: 738328) and incubating for 1 hour at 37° C. After the plates are washed three times with wash buffer (PBS with 0.05%(v/v) Tween20 (Sigma, Cat No:P1379), 100 μL/well of a suitable dilutions of hybridoma supernatant in blocking buffer were added and incubated at room temperature for 1 hour. The plates were washed and incubated with 100 μL/well of Goat anti-Mouse IgG (H+L) (Thermo, Cat No: 31432) in blocking buffer for 60 min. After the plates were washed, 100 μL/well of substrate solution (TMB(eBioscience, Cat No:00-4201-56) was added and the plates were incubated for 2min at room temperature. 100 μL/well of stop solution (2N H2SO4) was added to stop the reaction. The colorimetric signals were developed and read at 450 nm using a Auto Plate SpectraMax Plus (Supplier: Molecular Devices; Model: MNR0643; Software: SoftMax Pro v5.4).

Test [3] addresses T3, human PD-1 on cells (293T cells transfected with human PD-1) (human, UniProt Q15116 25-288).
T3 construct: whole, on cells; Also used as the target for the functional rows, where PD-1 stands on human T cells
The test can be described thus: FACS ligand blockage: biotin-labeled PD-L1 binding to 293T cells expressing human PD-1, MFI. How it is done: (§3) Various concentrations of the testing hybridoma antibodies were added to the cell suspension and incubated at 4° C. for 60 minutes in 96 well plates. […] Plates were washed 3 times, and mouse anti-biotin PE antibody (Biolgend, cat# 409004) was added. Flow cytometric analyses were performed using a FACS Array.

Test [4] addresses T3, human PD-1 on cells (293T cells …). The test is described as follows: FACS binding to 293T cells expressing human PD-1, MFI. How it is done: (§4) The cells were incubated with the indicated antibody (20 ug/ml with the dilution of ⅕) at 4° C. for 1 h. Cells were washed three times with FACS buffer. A secondary antibody (PE Goat anti-mouse: 1:200; PE mouse anti-human: 1:10) was added to the cells at 100 ul/well, and incubated at 4° C. for 40min. Cells were washed three times with FACS buffer and analyzed by FACS Array.
For orientation: Flow cytometry measures light scatter and fluorescence of single cells or particles in a stream.

Test [5] deals with T2, human PD-1 extracellular domain fused …. The test can be described thus: ELISA binding (summary table). The procedure: as §2
(§5) The purified hybridoma antibodies were characterized further based on ELISA and FACS analyses.

The target in test [6] is T3, human PD-1 on cells (293T cells …). The test can be described thus: FACS blockage on hPD-1-293T cells, competitor biotin PD-L2. How it is done: as §3, §5
The target of test [7] is T2, human PD-1 extracellular domain fused …. The test can be described thus: ELISA on coated PD1-hFc. The procedure: as §2, §5
Test [8] concerns the target T4, human PD-1 (construct not stated) (human, UniProt Q15116 25-167, limits assumed).
T4 construct: also called PD-1 analyte
The test is described as follows: Biacore (summary table; unit from Table 7). The procedure:
(§6) To further characterize the binding characteristics of the antibodies, 10 hybridoma antibodies were profiled using Biacore (Biacore 3000, GE) to elucidate binding kinetics and calculate equilibrium binding constants. This assay was performed by capture method, using the mouse antibody capture kit (BR-1008-38, GE). After diluting anti-mouse Fc mab to 25 μg/ml in pH 5.0 immobilization buffer, immobilization was conducted with the parameters shown in Table 6 at a flow rate of 5 μl/min. The kinetic runs were done by 1) injecting ligand for typical 0.5-1 min at flow rate of 10 μl/min.; 2) injecting analytes of choice for typical 3 min followed by dissociation in running buffer (1× PBS-P20) for typical 5-10 min at flow rate of 30 μl/min.; and 3) injecting regeneration solution 10 mM Glycine pH1.7 for typical 1-2 min at flow rate of 10 μl/min.
Background: In SPR one partner is held on a chip, and binding of the other changes the refractive index at the surface.

For a further test, the target named is human CD28 (human, UniProt P10747 19-152, limits assumed). The test can be described thus: Interaction with CTLA4, ICOS CD28; assay not detailed.
Chain of human CD28 (P10747 19-152 limits assumed): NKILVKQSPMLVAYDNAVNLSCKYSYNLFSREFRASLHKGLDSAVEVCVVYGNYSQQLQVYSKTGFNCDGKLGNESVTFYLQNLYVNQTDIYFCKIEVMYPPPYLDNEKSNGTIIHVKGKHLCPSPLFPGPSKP
Another test concerns the target T5, human CTLA4 (human, UniProt P16410 36-161, limits assumed).
T5 sequence (looked up): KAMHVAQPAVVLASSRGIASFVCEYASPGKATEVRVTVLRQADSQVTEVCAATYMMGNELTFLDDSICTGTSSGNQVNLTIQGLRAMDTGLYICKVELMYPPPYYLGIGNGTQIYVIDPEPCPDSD
Described as above.

The next test concerns the target T6, human ICOS (human, UniProt Q9Y6W8 21-140, limits assumed).
T6 sequence (looked up): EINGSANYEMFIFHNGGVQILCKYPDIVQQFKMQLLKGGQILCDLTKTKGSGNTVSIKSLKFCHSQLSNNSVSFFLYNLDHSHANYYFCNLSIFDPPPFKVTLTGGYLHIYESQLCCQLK
The test is described as above.

Test [9] addresses T3, human PD-1 on cells (293T cells …). The test is described as follows: FACS on hPD-1-293T cells. The procedure: as §4, §5
Test [10] shares this target. The test can be described thus: FACS blockage on hPD-1-293T cells, competitor biotin PD-L1. The procedure:
as §3, §5

Test [11] addresses T4, human PD-1 (construct not stated). The test is described as follows: Biacore, antibody captured, PD-1 analyte. The procedure: as §6
The target in another test is T7, mouse PD-1 (mouse, UniProt Q02242 25-169, limits assumed).
T7 sequence (looked up): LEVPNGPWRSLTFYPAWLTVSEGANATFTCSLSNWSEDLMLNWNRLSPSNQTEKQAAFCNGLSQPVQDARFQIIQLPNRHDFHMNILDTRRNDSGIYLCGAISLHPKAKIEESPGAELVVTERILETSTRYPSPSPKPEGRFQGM
The test can be described thus: assays not detailed.

In test [12] the target is T1, human PD-1 extracellular domain fused …. The test is described as follows: blockage ELISA, coated PD-1-mFc, competitor PDL-1-mFc-biotin. The procedure:
as §1, §5

Test [13] shares this target. The test is described as follows: blockage ELISA, competitor PDL-1-mFc-biotin (summary table; IC50 in ng/ml in Table 2). The procedure:
as §1

T1 sequence (Q15116 25-170): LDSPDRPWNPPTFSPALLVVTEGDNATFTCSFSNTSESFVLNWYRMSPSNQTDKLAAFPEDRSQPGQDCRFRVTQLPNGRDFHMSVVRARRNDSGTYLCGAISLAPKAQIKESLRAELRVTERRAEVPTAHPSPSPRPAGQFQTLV
T3 sequence (Q15116 25-288): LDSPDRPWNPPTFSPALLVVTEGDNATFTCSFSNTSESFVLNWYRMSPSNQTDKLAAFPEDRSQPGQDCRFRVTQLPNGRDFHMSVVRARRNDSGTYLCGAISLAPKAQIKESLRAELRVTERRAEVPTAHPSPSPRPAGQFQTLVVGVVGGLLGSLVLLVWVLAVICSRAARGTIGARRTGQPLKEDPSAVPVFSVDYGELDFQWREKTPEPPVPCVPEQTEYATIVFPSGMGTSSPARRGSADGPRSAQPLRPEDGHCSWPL
T4 sequence (Q15116 25-167 limits assumed): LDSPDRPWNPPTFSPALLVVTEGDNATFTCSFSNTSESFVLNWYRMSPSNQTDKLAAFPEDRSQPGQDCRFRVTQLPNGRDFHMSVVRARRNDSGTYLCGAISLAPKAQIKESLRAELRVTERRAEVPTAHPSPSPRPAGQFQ

B1: humanized 13F1-hIgG1 (antibody)
heavy: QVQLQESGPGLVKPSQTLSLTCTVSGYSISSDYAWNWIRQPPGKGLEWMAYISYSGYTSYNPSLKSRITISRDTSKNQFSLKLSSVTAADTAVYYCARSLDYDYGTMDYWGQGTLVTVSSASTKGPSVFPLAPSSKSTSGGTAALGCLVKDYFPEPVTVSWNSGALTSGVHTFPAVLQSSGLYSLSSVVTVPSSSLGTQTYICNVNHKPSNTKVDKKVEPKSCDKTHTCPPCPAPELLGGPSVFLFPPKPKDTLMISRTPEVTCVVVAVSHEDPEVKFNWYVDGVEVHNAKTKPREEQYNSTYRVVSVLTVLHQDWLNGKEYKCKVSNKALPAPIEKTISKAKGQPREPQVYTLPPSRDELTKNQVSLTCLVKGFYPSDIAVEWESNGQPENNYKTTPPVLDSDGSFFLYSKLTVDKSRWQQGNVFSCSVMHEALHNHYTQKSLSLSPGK
light: EIVLTQSPATLSLSPGERATLSCRANSSVSSMHWYQQKPGQSPEPWIYAISNLAFGVPARFSGSGSGTDYTLTISSLEPEDFAVYYCQQWSSRPPTFGQGTKLEIKRTVAAPSVFIFPPSDEQLKSGTASVVCLLNNFYPREAKVQWKVDNALQSGNSQESVTEQDSKDSTYSLSSTLTLSKADYEKHKVYACEVTHQGLSSPVTKSFNRGEC
notes: IgG1 constant region with D265A, already in the entry; also called h13F1-IgG1; hu-13F1-hIgG1
As for B1, the figures for the IC50 in test [1] and in test [3] were 0.985 µg/mL and 0.0295 µg/mL, respectively. The EC50 was 0.0357 µg/mL in test [2] and 0.0668 µg/mL in test [4].

B2: 4C10 murine anti-PD-1 antibody (antibody, V domains shown)
VH: QVQLKQSGPGLVQPSQNLSVTCTVSGFSLTTYGVHWVRQSPGKGLEWLGVIWSGGSTDYNAAFISRLTISKDNARSQVFFKMNSLQVNDTAMYYCAREKSVYGNYVGAMDYWGQGTSVTVSS
VL: SIVMTQTPKFLLVSAGDRVTITCKASQSVSDDVAWYQQKPGQSPKLLIYYAFNRYTGVPDRFTGSGYGTDFTFTISTVQSEDLAVYFCQQDYRSPWTFGGGTKLEIKR
notes: Purified hybridoma antibody; also called 4C10-mIgG1
Consider B2, for which the EC50 in test [5] came to 0.0132 µg/mL; in test [7], 0.0132 µg/mL; in test [9] it was 0.109 µg/mL. For the same molecule, the IC50 came out at 0.251 µg/mL in [6], 0.0833 µg/mL in [10], 1.46 µg/mL in test [12] and 1.46 µg/mL in test [13]. Besides, the Kd in [8] and in [11] was 0.0332 nM throughout. The binding result with human CD28, in the test with human CTLA4, with human ICOS and with mouse PD-1 was “no binding” throughout. The Ka in test [11] was determined as 3.01e+10 M⁻¹. This molecule had a koff in [11] of 2.63e-05 s⁻¹. Further, the kon in test [11] turned out to be 791000 M⁻¹ s⁻¹.

B3: 6E1 murine anti-PD-1 antibody (antibody, V domains shown)
VH: EVKLVESGGGLVKPGGSLKLSCAASGFTFSSYGMSWVRQTPEKRLEWVATISGGGRDTYYLDSVKGRFTISRDNAKNNLYLQMSSLRSEDTALYYCVRQYYDDWFAYWGQGTLVSNSA
VL: DIVLTQTPATLSVTPGDSVSLSCRASQSLSNNLHWYQQKSHESPRLLIKYASQSISGIPSRFSGSGSGTDFTLSINSVETEDFGMYFCQQSNSWPLTFGAGTKLEMKR
notes: Purified hybridoma antibody; also called 6E1-mIgG1
For B3, the EC50 in test [5] was 0.0157 µg/mL; in test [7], 0.0157 µg/mL; in [9], 0.0491 µg/mL. Besides, the IC50 in [6] was found to be 0.114 µg/mL; in test [10] it was 0.0268 µg/mL; in test [12] it was 0.961 µg/mL; in [13], 0.961 µg/mL. Further, the Kd in test [8] and in test [11] was 0.0255 nM throughout. Further, the binding result in the test with human CD28, with human CTLA4, with human ICOS and with mouse PD-1 was “no binding” each time. In test [11], this molecule registered a Ka of 3.92e+10 M⁻¹. In addition, the koff in test [11] amounted to 2.83e-05 s⁻¹. The kon in [11] was found to be 1.11e+06 M⁻¹ s⁻¹.

B4: 7D3 murine anti-PD-1 antibody (antibody, V domains shown)
VH: EVKLVESGGGLVKPGGSLKLSCGASGFTFSSYGMSWVRQTPEKRLEWVATISGGGRDIYYPDSVKGRLTISRDNAKNNLYLQMSSLRSEDTALYYCVRQYYDDWFAYWGQGTLVTVSA
VL: DIVLTQSPATLSVTPGDSVSLSCRASQSISNDLHWYQQKSHESPRLLIKYVSQSISGIPSRFSGSGSGTDFTLSINSVETEDFGMYFCQQSDSWPLTFGAGTKLELKR
notes: Purified hybridoma antibody; also called 7D3-mIgG1
Take B4: the figures for the EC50 in test [5], in [7] and in test [9] were 0.0244 µg/mL, 0.0244 µg/mL and 0.0527 µg/mL, respectively. For the same molecule, the IC50 in test [6] came out at 0.141 µg/mL; in test [10] it was 0.038 µg/mL; in test [12] it was 0.982 µg/mL; in test [13], 0.982 µg/mL. Besides, the Kd in test [8] and in test [11] was 0.0249 nM each time. In addition, the binding result in the test with human CD28, with human CTLA4, with human ICOS and in the test with mouse PD-1 was “no binding” throughout. This molecule displayed a Ka in test [11] of 4.02e+10 M⁻¹. The molecule further came in with a koff in [11] of 2.83e-05 s⁻¹. Also, in [11], the kon was 1.14e+06 M⁻¹ s⁻¹.
